The values below come from article PMC10869273.

Some results are limits rather than exact numbers.

Targets include H1 Caledonia; H5 Vietnam; H3 Victoria; H3 Panama; H2 Japan.
Experiment in all cases: BLI
Test [1] deals with HA H1 Solomon (A/Solomon Islands/3/2006(H1N1)). Particulars: monovalent Fab.

On to MEDI8852 VH E65P Fab, for which the Kd with H1 Caledonia, with H5 Vietnam, with H3 Victoria, with H3 Panama and with H2 Japan was less than 1 pM each time.

With “MEDI8852 unmutated common ancestor (UCA) Fab (wild-type) VH:K58S; VH:V65P; VL:G95P”, in test [1], the Kd – broadly, the equilibrium constant for the complex coming apart – came out at 50 nM.
